The values that follow come from patent publication US20200353067A1.

In the assay the target is CX3CR1 (fractalkine receptor) (human) (UniProt P49238). The assay is described as follows: cell-based or functional assay.
Chain of UniProt P49238 (P49238 whole entry): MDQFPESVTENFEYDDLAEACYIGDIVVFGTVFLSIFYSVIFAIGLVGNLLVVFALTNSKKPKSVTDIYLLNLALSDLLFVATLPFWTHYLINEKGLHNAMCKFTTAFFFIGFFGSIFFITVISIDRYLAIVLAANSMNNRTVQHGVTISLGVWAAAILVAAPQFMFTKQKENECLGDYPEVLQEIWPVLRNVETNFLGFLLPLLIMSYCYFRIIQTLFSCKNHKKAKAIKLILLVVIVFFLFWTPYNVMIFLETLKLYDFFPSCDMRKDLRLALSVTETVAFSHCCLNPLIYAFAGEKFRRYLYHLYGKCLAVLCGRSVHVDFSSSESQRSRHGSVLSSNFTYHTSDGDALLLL

“RSV A2 strain G-protein (surface attachment glycoprotein) (from UniProt P03423 1-298) (ligand)” registered a viral load of 2.3 fold.
